Measured values published in PMC8556674.

Key:
mchr-Miro2 (human) [1] = target: mchr-Miro2 (human) (UniProt Q8IXI1)
mchr-Miro2 A13V (human) = mchr-Miro2 A13V (human) (UniProt Q8IXI1)
mchr-Miro2 (human) [2] = target: mchr-Miro2 (human) (UniProt Q8IXI1); remark: listed apart in the source

Sequence of mchr-Miro2 (human) (Q8IXI1 whole entry): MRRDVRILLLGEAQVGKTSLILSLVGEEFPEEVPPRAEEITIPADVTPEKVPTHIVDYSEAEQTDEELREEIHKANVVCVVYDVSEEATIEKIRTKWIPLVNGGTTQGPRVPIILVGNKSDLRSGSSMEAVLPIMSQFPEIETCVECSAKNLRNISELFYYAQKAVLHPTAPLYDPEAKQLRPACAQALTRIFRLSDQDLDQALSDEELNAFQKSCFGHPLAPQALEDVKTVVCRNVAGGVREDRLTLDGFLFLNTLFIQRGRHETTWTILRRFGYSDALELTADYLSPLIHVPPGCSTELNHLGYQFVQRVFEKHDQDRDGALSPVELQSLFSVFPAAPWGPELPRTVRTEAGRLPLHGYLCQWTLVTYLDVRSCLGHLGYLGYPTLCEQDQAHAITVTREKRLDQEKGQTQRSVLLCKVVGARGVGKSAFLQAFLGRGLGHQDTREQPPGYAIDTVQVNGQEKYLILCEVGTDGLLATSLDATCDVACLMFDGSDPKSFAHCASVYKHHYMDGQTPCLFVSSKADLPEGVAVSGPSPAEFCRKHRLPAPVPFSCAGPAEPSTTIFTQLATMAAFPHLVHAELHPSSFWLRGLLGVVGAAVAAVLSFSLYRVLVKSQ
Sequence of mchr-Miro2 A13V (human) (Q8IXI1 whole entry A13V): as the sequence (Q8IXI1 whole entry) above, with A13V counted along it

Substance | FRAP immobile fraction, live HeLa cells (mchr-Miro2 (human) [1]) | FRAP t1/2 of mitochondrial GFP fluorescence, live HeLa cells (mchr-Miro2 (human) [1]) [s] | FRAP immobile fraction, live HeLa cells (mchr-Miro2 A13V (human)) | PARF immobile fraction, HeLa cells, 25 uM digitonin (mchr-Miro2 (human) [2])
MYO19^898–970-GFP (from UniProt Q96H55 898-970) (domain or fragment) | 0.03 | 9.2 | 0.14 | 0.33
MYO19^898–970-GFP mut. (K923, R927 and K928 mutated to alanine) (from UniProt Q96H55 898-970) (domain or fragment) | 0.04 | 1.5 |  | 
